Fewer inactive variants are shown than the library holds.
Legend:
biotinyl-Val-oxazolone = experiment: self-aminoacylation, catalytic enhancement (BVO) (fold over background); higher = more active; k-Seq, kA / k0A0; sequences stand for … in GGGAAUGGAUCCACAUCUACGAAUUC…UUCACUGCAGACUUGACGAAGCUG
Method in brief: (§1)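 Mutagenized RNA pools with a 21-nt variable region (0.43 μM) were reacted with each biotinyl-aminoacyl-oxazolone at 2–1250 μM for 90 minutes at room temperature, in 50 μL HEPES/NaCl/KCl/MgCl2/CaCl2 buffer containing 5% acetonitrile at pH 6.9–7.0. RNA captured on streptavidin was quantified by triplicate qPCR and by Illumina sequencing. The fraction reacted for each sequence was fit to a pseudo-first-order model with bootstrapping, and catalytic enhancement is the median kA divided by the uncatalyzed rate, taken as the low-activity peak of a bimodal Gaussian fit.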

biotinyl-Phe-oxazolone = experiment: self-aminoacylation, catalytic enhancement (BFO) (fold over background); higher = more active; k-Seq, kA / k0A0; sequences stand for … in GGGAAUGGAUCCACAUCUACGAAUUC…UUCACUGCAGACUUGACGAAGCUG
Method in brief: as §1

biotinyl-Ile-oxazolone = experiment: self-aminoacylation, catalytic enhancement (BIO) (fold over background); higher = more active; k-Seq, kA / k0A0; sequences stand for … in GGGAAUGGAUCCACAUCUACGAAUUC…UUCACUGCAGACUUGACGAAGCUG
Method in brief: as §1

biotinyl-Met-oxazolone = experiment: self-aminoacylation, catalytic enhancement (BMO) (fold over background); higher = more active; k-Seq, kA / k0A0; sequences stand for … in GGGAAUGGAUCCACAUCUACGAAUUC…UUCACUGCAGACUUGACGAAGCUG
Method in brief: as §1

biotinyl-Leu-oxazolone = experiment: self-aminoacylation, catalytic enhancement (BLO) (fold over background); higher = more active; k-Seq, kA / k0A0; sequences stand for … in GGGAAUGGAUCCACAUCUACGAAUUC…UUCACUGCAGACUUGACGAAGCUG
Method in brief: as §1

biotinyl-Trp-oxazolone = experiment: self-aminoacylation, catalytic enhancement (BWO) (fold over background); higher = more active; k-Seq, kA / k0A0; sequences stand for … in GGGAAUGGAUCCACAUCUACGAAUUC…UUCACUGCAGACUUGACGAAGCUG
Method in brief: as §1

Row | Sequence | self-aminoacylation (biotinyl-Val-oxazolone) | self-aminoacylation (biotinyl-Phe-oxazolone) | self-aminoacylation (biotinyl-Ile-oxazolone) | self-aminoacylation (biotinyl-Met-oxazolone) | self-aminoacylation (biotinyl-Leu-oxazolone) | self-aminoacylation (biotinyl-Trp-oxazolone)
1 | AAGUUUGCUAAUCGGCGCAAG [Fam3.1 aminoacylation ribozyme variant] | 1.14 | 2.32 | 0.842 | 1.03 | 1.05 | 0.944
2 | AAGUUUGCUAAUGGGCGCAAG [Fam3.1 aminoacylation ribozyme variant] | 0.874 | 0.784 | 0.937 | 0.695 | 1.08 | 1.5
3 | AAGUUUGCUAAUGGUCGAAAG [Fam3.1 aminoacylation ribozyme variant] | 0.897 | 1.03 | 0.687 | 0.723 | 0.591 | 0.713
4 | AAGUUUGCUAAUGGUCGCGAG [Fam3.1 aminoacylation ribozyme variant] | 1.27 | 8.04 | 1.21 | 1.15 | 1.59 | 1.82
5 | AAGUUUGCUAAUUGUAGCAAG [Fam3.1 aminoacylation ribozyme variant] | 1.03 | 0.987 | 0.854 | 0.979 | 0.95 | 1.02
6 | AAGUUUGCUAAUUGUCGCAAG [Fam3.1 aminoacylation ribozyme variant] | 0.846 | 1.37 | 0.834 | 0.788 | 0.764 | 1.06
7 | AAGUUUGCUAAUUGUCUCAAG [Fam3.1 aminoacylation ribozyme variant] | 0.881 | 1.05 | 0.937 | 0.943 | 0.852 | 0.743
8 | AAGUUUGCUACUAGUCCCAAG [Fam3.1 aminoacylation ribozyme variant] | 0.759 | 0.773 | 0.894 | 0.931 | 0.899 | 0.786
9 | AAGUUUGCUAGAAGUCGCAAG [Fam3.1 aminoacylation ribozyme variant] | 0.656 | 0.798 | 0.674 | 0.802 | 0.824 | 1.51
10 | AAGUUUGCUAGCAGUCGCAAG [Fam3.1 aminoacylation ribozyme variant] | 1.08 | 1.85 | 1.19 | 1.03 | 1.04 | 0.91
11 | AAGUUUGCUAGUAAUCGCAAG [Fam3.1 aminoacylation ribozyme variant] | 0.819 | 0.961 | 0.761 | 0.789 | 0.733 | 0.849
12 | AAGUUUGCUAGUAGUUGCAAG [Fam3.1 aminoacylation ribozyme variant] | 0.737 | 0.949 | 0.985 | 1.04 | 0.791 | 1.1
13 | AAGUUUGCUAUUAGUCCCAAG [Fam3.1 aminoacylation ribozyme variant] | 1.02 | 1.45 | 0.989 | 0.99 | 1.04 | 2
14 | AAGUUUGCUAUUAGUCGCUAG [Fam3.1 aminoacylation ribozyme variant] | 0.85 | 1.16 | 0.864 | 1.01 | 0.815 | 0.805
15 | AAGUUUGCUAUUAGUUGCAAG [Fam3.1 aminoacylation ribozyme variant] | 0.874 | 1.46 | 0.855 | 0.859 | 0.96 | 1.01
16 | AAGUUUGCUCAUUGUCGCAAG [Fam3.1 aminoacylation ribozyme variant] | 0.968 | 3 | 0.875 | 1.09 | 0.923 | 1.89
17 | AAGUUUGCUGAUAGUCGCAAU [Fam3.1 aminoacylation ribozyme variant] | 1.33 | 1.68 | 1.71 | 1.22 | 1.09 | 1.87
18 | AAGUUUGCUUAUAGUCGCGAG [Fam3.1 aminoacylation ribozyme variant] | 1.03 | 0.935 | 1.01 | 1.07 | 0.821 | 1.53
19 | AAGUUUGGGAAUAGUCGCAAG [Fam3.1 aminoacylation ribozyme variant] | 1.25 | 1.95 | 1.32 | 0.876 | 1.05 | 1.69
20 | AAGUUUGGUAAUACUCGCAAG [Fam3.1 aminoacylation ribozyme variant] | 1.04 | 1.07 | 1.06 | 0.998 | 0.673 | 0.719
21 | AAGUUUGGUAAUAGGCGCAAG [Fam3.1 aminoacylation ribozyme variant] | 0.775 | 0.618 | 0.692 | 0.705 | 0.761 | 0.712
22 | AAGUUUGGUAAUAGUCGCAAA [Fam3.1 aminoacylation ribozyme variant] | 1.44 | 1.72 | 1.88 | 1.66 | 1.44 | 1.75
23 | AAGUUUGGUAAUAGUCGCAAC [Fam3.1 aminoacylation ribozyme variant] | 1.47 | 2.86 | 1.48 | 1.19 | 1.16 | 1.84
24 | AAGUUUGGUAAUAGUCGCAGG [Fam3.1 aminoacylation ribozyme variant] | 1.4 | 2.19 | 1.47 | 1.39 | 1.7 | 2.18
25 | AAGUUUGGUAAUAGUCGCCAG [Fam3.1 aminoacylation ribozyme variant] | 1.32 | 4.77 | 1.32 | 1.1 | 1.27 | 2.18
26 | AAGUUUGGUAAUAGUCGGAAG [Fam3.1 aminoacylation ribozyme variant] | 0.815 | 1.11 | 0.893 | 0.771 | 0.717 | 1.08

Reference: the supplement of paper PMC9233669
